Data as given in US20220162310A1.

Target: human TIGIT-Fc antigen (human) (UniProt Q495A1)
Assay: ELISA on plate-coated human TIGIT-Fc (3 ug/ml), scFv from 80 nM in 1/3 steps, anti-His-HRP, OD450; value is C of the printed 4-P fit; the sheet prints no unit, nM from paragraph 123

human TIGIT-Fc antigen (human), sequence (Q495A1 22-141 T103A limits assumed): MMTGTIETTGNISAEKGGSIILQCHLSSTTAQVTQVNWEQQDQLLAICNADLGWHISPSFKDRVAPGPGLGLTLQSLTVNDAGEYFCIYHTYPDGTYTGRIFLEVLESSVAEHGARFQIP

EC50: 0.526 nM
B1: 1F10 (scFv-type anti-TIGIT antibody) (scFv, part only; not given: linker, domain order, His tag, V domains shown, not shown: another chain or arm of the molecule; small tags and cut ends)
VH: EVQLVESGGGLVKPGGSLRISCAASGFTFSNYNMIWVRQAPGKGLEWVSSISSSASYIYYADSVKGRFTISRDNAKNSLYLQMNSLRAEDTAVYYCARDEGSRDSWNNGPYYYSGMDVWGQGTTVTVSS
VL: AIQMTQSPSSLSASVGDRVTITCRASQSISRYLNWYQHKPGKAPKLLIYGASSLQSGVPSRFRGSGSGTDFTLTISSLQPEDFATYYCQQSYTTPGAFTFGGGTKVEIK
